Experimental findings from US20250250361A1, “ANTI-PLA2G10 ANTIBODIES AND METHODS OF USE” (Yale University, priority 2022, published 2025) are described below.

Assay [1] concerns T cell migration inhibited by PLA2G10. Kind of assay: high throughput T cell mobility assay (TCMA). Format: cell-based. Conditions: activated primary human T cells from 3 donors, CXCL11 100 ng/ml. Here is the method:
A high throughput T cell mobility assay (TCMA) was performed to assess the ability of the antibody clones identified in Example 1 and varespladib (a small molecule PLA2G10 inhibitor) to attenuate the inhibitory effect of PLA2G10 on T cell migration. The TCMA was built by modifying Boyden's two-chamber assay in a 96-well format, in which two chambers were separated by a porous membrane. While activated T cells on the upper chamber are largely held by the membrane, exposure to chemokines allows T cells to transpass the membrane and migrate into the lower chamber. In the assay, HEK293T cells 5×10^4 were seeded in a reservoir plate (the lower chambers) arrayed with human secretory molecule encoding genes and transiently transfected using jetPRIME® transfection reagent (Polyplus transfection) as described previously (Yao et al., (2011) Immunity 34:729-740). After overnight incubation, the culture supernatant was replaced by a fresh migration medium (RPMI-1640 containing 1% fetal calf serum from Atlanta Biologicals) and further cultured for 2-3 days. […] At the end of incubation, the upper chamber was removed, and cells in the lower chambers were collected and stained with AF647-labeled anti-human CD45 mAb (clone 2D1, Biolegend) and numerated by the Mirrorball® plate reader (TPP Labtech). […]

For assay [2], the target named is T1, recombinant human PLA2G10 protein (Origene) (human, UniProt O15496 43-165, limits assumed).
T1 construct: also called rhPLA2G10; hPLA2G10
T1 sequence (looked up): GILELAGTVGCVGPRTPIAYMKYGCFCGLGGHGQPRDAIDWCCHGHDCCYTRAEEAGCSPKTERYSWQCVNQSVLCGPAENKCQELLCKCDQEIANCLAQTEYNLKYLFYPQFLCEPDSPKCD
Kind of assay: one-way ELISA, plates coated with human PLA2G10 (Origene). The method, then: (§1) A one-way ELISA was performed to assess antibody binding to PLA2G10. Plates were coated with either human PLA2G10 (Origene) or mouse PLA2G10 (NP285) at 0.5 mg/ml and tested using a PLA2G10 ELISA kit (Elabscience, China) per the manufacturer's instructions. Testing results were normalized as (Vt−Vm)/Vm, where Vt indicates the value calculated according to the standard curve and Vm indicates the mean value of all samples tested on the same ELISA plate.

Assay [3] concerns mouse PLA2G10 (mPLA2G10-IgFc). Kind of assay: sPLA2 assay kit, phospholipase enzymatic activity of mouse PLA2G10. It counts as biochemical. Conditions: mPLA2G10-IgFc 0.32 mg/ml, antibody 1 mg/ml, 37° C. 45 minutes preincubation. Here is the method: (§2) The PLA2G10 enzymatic activity for hydrolysis of phospholipids was tested using a sPLA2 assay kit (Cayman Chemical, MI) according to manufacturer's instructions. Briefly, the 1,2-dithio analog of diheptanoyl phosphatidylcholine serves as a substrate for sPLA2s. Upon hydrolysis of the thioester bond at the sn-2 position by PLA2G10, free thiols are detected using DTNB (5,5′-dithio-bis-(2-nitrobenzoic acid)). Recombinant human PLA2G10 protein (rhPLA2G10) (0.5 μg, 2.5 μg/ml final concentration) was incubated with 1C11 antibody (5 μg, 25 μg/ml final concentration) at RT for 30 minutes before testing. Mouse PLA2G10 protein (mPLA2G10-IgFc) (0.32 mg/ml) was incubated with 1C11 or 2B12 antibody (1 mg/ml) at 37° C. for 45 minutes before testing.

Assay [4] concerns the target T2, human PLA2G10 (Homo sapiens, UniProt O15496).
T2 construct: purchased Origene
T2 sequence (O15496 43-165): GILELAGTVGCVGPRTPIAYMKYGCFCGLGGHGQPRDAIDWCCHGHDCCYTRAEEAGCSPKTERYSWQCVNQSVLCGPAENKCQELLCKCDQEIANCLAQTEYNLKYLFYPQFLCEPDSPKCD
Kind of assay: one-way ELISA, antibody binding to human PLA2G10. The conditions noted are these: plates coated with human PLA2G10. Here is the method:
as §1
Background: ELISA stands for enzyme-linked immunosorbent assay.

The target of assay [5] is T3, recombinant human PLA2G10 (rhPLA2G10) (Homo sapiens, UniProt O15496).
T3 sequence (O15496 43-165): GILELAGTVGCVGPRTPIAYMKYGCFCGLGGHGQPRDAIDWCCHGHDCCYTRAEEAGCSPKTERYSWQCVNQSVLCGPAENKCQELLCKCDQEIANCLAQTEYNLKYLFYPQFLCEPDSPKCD
Kind of assay: sPLA2 assay kit, phospholipase enzymatic activity of human PLA2G10. It counts as biochemical. Conditions: rhPLA2G10 2.5 μg/ml, antibody 25 μg/ml, RT 30 minutes preincubation. Here is the method: as §2

Assay [6] deals with HT-29 tumors. Kind of assay: HT-29 xenograft tumor model in NSG mice. The conditions noted are these: compared to control. Format: in vivo. The method, then:
FIG. 6A is a graph showing HT29 xenograft tumor growth over time with anti-PLA2G10 antibody 1C11 or control treatment. Data were analyzed by one-way ANOVA. * p<0.01. FIG. 6B is a series of pictures showing 1C11 or control antibody treated tumors at day 37. Tumors were surgically removed, formalin-fixed, and sectioned. Tumor tissue sections were studied by immunohistochemistry using an anti-human CD3 mAb. FIG. 6C is a graph showing quantification of CD3+ T cells in control antibody or 1C11 treated tumors (hpf, high power field x400). Cell numbers of ten […] hpfs were randomly picked in each sample for counting and average cell counts were plotted. Box whisker plots depict the mean, the minimum to the maximum value, and each data point was shown. Data were analyzed by the Mann-Whitney test. * p<0.05.
The human colon adenocarcinoma cell line HT-29 secretes PLA2G10 and forms tumors when inoculated in immunodeficient NSG (NOD scid gamma) mice subcutaneously.

Assay [7] has as its target T4, mouse PLA2G10 (Mus musculus, UniProt Q9QXX3).
T4 construct: NP285
T4 sequence (Q9QXX3 29-151): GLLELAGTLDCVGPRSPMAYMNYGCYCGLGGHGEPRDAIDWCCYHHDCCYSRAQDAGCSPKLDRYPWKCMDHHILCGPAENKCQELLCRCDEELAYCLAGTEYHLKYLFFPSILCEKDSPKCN
Kind of assay: one-way ELISA, antibody binding to mouse PLA2G10. The conditions noted are these: plates coated with mouse PLA2G10. Here is the method: as §1

The test system of assay [8] is MC38-2G10 tumors. Kind of assay: MC38-2G10 syngeneic tumor model. Format: in vivo. Conditions: established tumors in mice, antibodies at 6, 11 and 16 days after inoculation. The method, then:
FIG. 4 is a graph showing MC38-2G10 tumor growth in mice over time with anti-PLA2G10 antibody 1C11, anti-PD-1 antibody G4, or combined treatment. Mice were treated with antibodies at 6, 11, and 16 days after tumor inoculation. Representative results of two independent experiments are shown as the mean±SEM. Data were analyzed by two-way ANOVA. * p<0.05, ns=not significant.
To investigate the in vivo effects of anti-PLA2G10 antibody 1C11, a tumor cell line, MC38-2G10, was established by lentivirus-mediated gene transduction to stably express murine PLA2G10 homolog.

Assay [9] concerns KPC-2G10 tumors. Kind of assay: KPC-2G10 syngeneic tumor model. Format: in vivo, mice. The method, then:
FIG. 5A is a graph showing KPC-2G10 tumor growth in mice over time with anti-PLA2G10 antibody 1C11, anti-PD-1 antibody G4, or combined treatment. Mice were treated with antibodies at 5, 10, and 15 days (+20-day treatment for 1C11) after tumor inoculation. Representative results of two independent experiments are shown as the mean±SEM. Data were analyzed by one-way ANOVA. FIG. 5B is a graph showing quantification of CD3+T cells by immunohistochemistry staining with an anti-CD3 mAb in the KPC-2G10 tumors with or without 1C11 treatment. Cell numbers of five hpfs were randomly picked in each sample for counting and average cell counts were plotted. Box whisker plots depict the mean, the minimum to the maximum value, and each data point was shown. Data were analyzed by the Mann-Whitney test. * p<0.05.
Similar results were also obtained in another syngeneic mouse model using the KPC pancreatic cancer subline, which has moderate TILs when growing subcutaneously (Sun et al., 2021, Sci Transl Med 4, 127ral37) (FIG. 5A).

Where [10] appears, read: CD3+ T cells by immunohistochemistry.

Entries after “also recorded” stand apart in the source; their conditions may differ.

Take `CCc1c(C(=O)C(N)=O)c2c(OCC(=O)O)cccc2n1Cc1ccccc1` [varespladib, reference compound]: in [1], the “reversal of T cell migration inhibited by PLA2G10” value was “reversed”.

B1: anti-PLA2G10 antibody 1C11 (mouse IgG2a) (antibody, V domains shown)
VH: QVTLKESGPGILHPSQTLSLTCSFSGFSLNTFGLGVGWVRQPSGKGQEWLAHIWWDDDRYYNPPLKSRLTISKDPSKNQVFLTIPNVNTANTATYYCTQILPHWVAYWGQGTTLTVSS
VL: DIQMNQSPSSLSASLGDTITISCHASQNINVWLSWYQQKPGNIPKLLIYKASNLHTGVPSRFSGSGSGTGFTFTISSLQPEDIATYFCQQGQSYPFTFGGGTKLELK
notes: also called 1C11 antibody; anti-PLA2G10 mAb IC11
B1: the binding result in assay [2] was “binds”.

B2: 1C11: anti-PLA2G10 antibody clone, VH SEQ ID NO: 1, VL SEQ ID NO: 2; binds human and mouse PLA2G10 (antibody, V domains shown)
VH: QVTLKESGPGILHPSQTLSLTCSFSGFSLNTFGLGVGWVRQPSGKGQEWLAHIWWDDDRYYNPPLKSRLTISKDPSKNQVFLTIPNVNTANTATYYCTQILPHWVAYWGQGTTLTVSS
VL: DIQMNQSPSSLSASLGDTITISCHASQNINVWLSWYQQKPGNIPKLLIYKASNLHTGVPSRFSGSGSGTGFTFTISSLQPEDIATYFCQQGQSYPFTFGGGTKLELK
Take B2: the “inhibition of phospholipase enzymatic activity of mouse PLA2G10” value in [3] is given as “inhibited”. Besides, the “binding to human PLA2G10 protein” value in assay [4] was “recognized; also recorded: showed binding”. Further, the “reversal of T cell migration inhibited by PLA2G10” value in [1] was “reversed”. In addition, the “inhibition of phospholipase enzymatic activity of human PLA2G10” value in [5] is “inhibited”. In assay [6] (setting [10]), the “T cell infiltration in HT-29 tumors” value is listed as “promoted T cell infiltration”. Also, the “HT-29 xenograft tumor growth” value in assay [6] (subcutaneous) is on record as “retarded tumor growth”. Further, in assay [7], the “binding to mouse PLA2G10 protein” value is reported as “recognized; also recorded: showed binding”. Also, the MC38-2G10 tumor growth entry in assay [8] is “did not induce the regression”. The “T cell infiltration in KPC-2G10 tumors” value in assay [9] (setting [10]) is “promoted T cell infiltration”. Further, the KPC-2G10 tumor growth result in [9] (syngeneic mice, subcutaneous, antibodies at 5, 10, 15 days) is “responded partially”.
